Patent US8461305B2, “L-fucose α1→6 specific lectin” (J-Oil Mills, Inc., priority 2008, dated 2013)

Legend:
[1] = molecular target: T1, α-fetoprotein (mainly L1-type sugar chain) (Homo sapiens, UniProt P02771); assay: detection of tumor marker sugar chain by ELISA; type: binding; settings: α-fetoprotein from human umbilical cord blood serum, coated at 0.01 μg/ml
T1 construct: derived from human umbilical cord blood serum; from tissue; host or cells: human umbilical cord blood serum
T1 sequence (P02771 19-609): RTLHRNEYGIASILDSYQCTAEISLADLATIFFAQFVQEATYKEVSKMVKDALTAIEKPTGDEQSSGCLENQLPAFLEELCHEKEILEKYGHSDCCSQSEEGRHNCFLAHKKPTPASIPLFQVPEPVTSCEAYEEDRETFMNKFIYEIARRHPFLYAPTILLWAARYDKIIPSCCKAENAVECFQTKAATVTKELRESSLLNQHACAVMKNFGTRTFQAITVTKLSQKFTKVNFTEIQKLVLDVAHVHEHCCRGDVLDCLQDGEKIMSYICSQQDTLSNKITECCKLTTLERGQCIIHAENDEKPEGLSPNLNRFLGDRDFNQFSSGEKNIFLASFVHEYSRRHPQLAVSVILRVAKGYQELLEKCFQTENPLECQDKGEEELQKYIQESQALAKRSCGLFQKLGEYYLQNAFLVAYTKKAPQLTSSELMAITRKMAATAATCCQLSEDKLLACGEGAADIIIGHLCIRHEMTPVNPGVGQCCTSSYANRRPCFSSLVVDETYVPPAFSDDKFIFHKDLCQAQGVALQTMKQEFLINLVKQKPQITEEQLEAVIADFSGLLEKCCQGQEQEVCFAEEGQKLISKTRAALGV
Description: (§1) α-fetoprotein (hereinafter referred to as “AFP”) is a glycoprotein included in a blood serum having an N-linked sugar chain. Substantially no AFP exists in the blood serum of a healthy adult. On the other hand, the blood serum of a patient having a benign liver disease has an increased α-fetoprotein L1-type sugar chain (AFP-L1). Furthermore, α-fetoprotein L3-type sugar chain (AFP-L3) is detected in a patient of a liver cancer. Conventionally, the difference in a sugar chain has been measured by LCA and the measurement result has been used for the diagnosis of a liver disease.
(§2) PTL of Example 1, SRL of Example 2, AAL of Comparison Example 1, AOL of Comparison Example 2, and the LCA of Comparison Example 3 that were biotin-labeled were used to evaluate the binding property of α-fetoprotein by ELISA.
(§3) 0.1 M carbonic acid buffer solution (pH 9.5) was used to dilute α-fetoprotein (derived from human umbilical cord blood serum, mainly L1-type sugar chain) and α-fetoprotein-L3 (prepared from the culture supernatant of human liver cancer cells) so as to achieve 0.01 μg/ml. Then, the resultant solution was added to a microtiter plate (Nunc) and was incubated at 4 degrees C. one night. After the solution was cleaned by 0.05% Tween/PBS three times, 1% BSA/PBS was added to wells and the solution was incubated at 37 degrees C. for one hour. After the solution was washed by 0.05% Tween/PBS three times, the wells were added with the biotin-labeled lectin solution appropriately diluted by 1% BSA/0.05% Tween/PBS and the solution was incubated at 37 degrees C. for one hour. After the solution was cleaned by 0.05% Tween/PBS three times, HRP labeled streptavidin solution diluted by 1% BSA/0.05% Tween/PBS was added and the solution was incubated at 37 degrees C. for 30 minutes. After the solution was cleaned by 0.05% Tween/PBS three times, TMB Peroxidase substrate system (KPL) was added and the resultant solution was incubated at a room temperature for 10 minutes while light was being blocked. The reaction was stopped by 1 M phosphoric acid. Then, a microplate reader (MPR-A4i, TOSOH CORPORATION) was used to measure the absorbance at 450 nm.
(§4) The absorbance at 450 nm of the plate on which α-fetoprotein and α-fetoprotein-L3 were caused to react with lectin was measured. Based on this value, the reaction value ([absorbance at 450 nm of a well for which glycoprotein was solid-phased to the plate and reacted]−[absorbance at 450 nm of a well for which glycoprotein was not solid-phased to the plate and reacted]) was calculated. Next, for each lectin, the interaction was calculated. Next, the calculation result of the reaction values is shown in Table 10 and FIG. 24 to FIG. 28.

[2] = molecular target: T2, α-fetoprotein-L3 (Homo sapiens, UniProt P02771); assay: detection of tumor marker sugar chain by ELISA; type: binding; settings: α-fetoprotein-L3 from culture supernatant of human liver cancer cells, coated at 0.01 μg/ml
T2 construct: prepared from the culture supernatant of human liver cancer cells; endogenous in cells
T2 sequence (P02771 19-609): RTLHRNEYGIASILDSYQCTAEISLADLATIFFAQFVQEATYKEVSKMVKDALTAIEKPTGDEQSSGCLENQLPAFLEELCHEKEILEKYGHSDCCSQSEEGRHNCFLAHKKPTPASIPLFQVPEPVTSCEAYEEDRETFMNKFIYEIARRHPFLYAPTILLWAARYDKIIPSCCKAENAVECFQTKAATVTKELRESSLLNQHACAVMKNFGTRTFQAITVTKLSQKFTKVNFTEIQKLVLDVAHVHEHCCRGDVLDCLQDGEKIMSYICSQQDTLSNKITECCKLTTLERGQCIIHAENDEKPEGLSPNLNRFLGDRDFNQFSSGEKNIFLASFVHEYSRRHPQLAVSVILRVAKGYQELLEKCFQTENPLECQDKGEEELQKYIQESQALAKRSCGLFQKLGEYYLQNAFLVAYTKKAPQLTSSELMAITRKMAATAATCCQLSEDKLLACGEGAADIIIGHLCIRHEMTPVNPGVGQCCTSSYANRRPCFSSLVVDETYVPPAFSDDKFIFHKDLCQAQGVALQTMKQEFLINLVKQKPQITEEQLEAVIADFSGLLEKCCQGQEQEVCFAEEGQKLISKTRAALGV
Description: as §1, §2, §3, §4

[3] = system: rabbit erythrocytes; assay: hemagglutinating activity test, rabbit erythrocytes; type: cell-based; settings: for hemagglutinating activity, titer (1.0 mg/ml): lectin 1.0 mg/ml
Description: (§5) The sugar binding specificity of lectin also can be confirmed by using erythrocytes that can be specifically agglutinated by the lectin to investigate the sugar type that may inhibit the agglutination of the erythrocytes and the concentration thereof.
(§6) PTL and SRL were subjected to hagglutinating activity test for rabbit, equine, pig, sheep, human (A, B, O), and actinase E-treated rabbit erythrocytes.

[4] = system: pig erythrocytes; assay: hemagglutinating activity test, pig erythrocytes; type: cell-based; settings: for hemagglutinating activity, titer (1.0 mg/ml): lectin 1.0 mg/ml
Description: as §5, §6

[5] = system: sheep erythrocytes; assay: hemagglutinating activity test, sheep erythrocytes; type: cell-based; settings: for hemagglutinating activity, titer (1.0 mg/ml): lectin 1.0 mg/ml
Description: as §5, §6

[6] = system: actinase E-treated rabbit erythrocytes; assay: hemagglutinating activity test, actinase E-treated rabbit erythrocytes; type: cell-based; settings: for hemagglutinating activity, titer (1.0 mg/ml): lectin 1.0 mg/ml
Description: as §5, §6

[7] = system: human (A, B, O) erythrocytes; assay: hemagglutinating activity test, human (A, B, O) erythrocytes; type: cell-based; settings: for hemagglutinating activity, titer (1.0 mg/ml): lectin 1.0 mg/ml
Description: as §6

[8] = system: equine erythrocytes; assay: hemagglutinating activity test, equine erythrocytes; type: cell-based
Description: as §5, §6

Aspergillus oryzae lectin [AOL, reference compound]
reaction value (absorbance at 450 nm, blank-subtracted) by ELISA [1]: 0.011
reaction value (absorbance at 450 nm, blank-subtracted) by ELISA [2]: 0.898

Pholiota terrestris lectin [PTL, novel L-fucose α1→6 specific lectin purified from the mushroom Pholiota terrestris]
Minimum hemagglutinating concentration [3]: 5.21 µg/mL
hemagglutinating activity, titer (1.0 mg/ml) [3]: 64 titer
Minimum hemagglutinating concentration [4]: 20.8 µg/mL
hemagglutinating activity, titer (1.0 mg/ml) [4]: 16 titer
reaction value (absorbance at 450 nm, blank-subtracted) by ELISA [1]: 0.039
reaction value (absorbance at 450 nm, blank-subtracted) by ELISA [2]: 1.548
Minimum hemagglutinating concentration [5]: >333 µg/mL
hemagglutinating activity, titer (1.0 mg/ml) [5]: <1 titer
Minimum hemagglutinating concentration [6]: 0.13 µg/mL
hemagglutinating activity, titer (1.0 mg/ml) [6]: 2560 titer
Minimum hemagglutinating concentration ([7]; Human A erythrocytes): >333 µg/mL
hemagglutinating activity, titer (1.0 mg/ml) ([7]; Human A erythrocytes): <1 titer
Minimum hemagglutinating concentration ([7]; Human B erythrocytes): >333 µg/mL
hemagglutinating activity, titer (1.0 mg/ml) ([7]; Human B erythrocytes): <1 titer
Minimum hemagglutinating concentration ([7]; Human O erythrocytes): >333 µg/mL
hemagglutinating activity, titer (1.0 mg/ml) ([7]; Human O erythrocytes): <1 titer

Stropharia rugosoannulata lectin [SRL, novel L-fucose α1→6 specific lectin purified from the mushroom Stropharia rugosoannulata]
Minimum hemagglutinating concentration [3]: 5.21 µg/mL
hemagglutinating activity, titer (1.0 mg/ml) [3]: 64 titer
Minimum hemagglutinating concentration [4]: 10.4 µg/mL
hemagglutinating activity, titer (1.0 mg/ml) [4]: 32 titer
reaction value (absorbance at 450 nm, blank-subtracted) by ELISA [1]: 0.031
reaction value (absorbance at 450 nm, blank-subtracted) by ELISA [2]: 1.625
Minimum hemagglutinating concentration [5]: >333 µg/mL
hemagglutinating activity, titer (1.0 mg/ml) [5]: <1 titer
Minimum hemagglutinating concentration [6]: 0.651 µg/mL
hemagglutinating activity, titer (1.0 mg/ml) [6]: 512 titer
Minimum hemagglutinating concentration [8]: 2.61 µg/mL
hemagglutinating activity, titer (1.0 mg/ml) ([8]; lectin 1.0 mg/ml): 128 titer
Minimum hemagglutinating concentration ([7]; Human A erythrocytes): >333 µg/mL
hemagglutinating activity, titer (1.0 mg/ml) ([7]; Human A erythrocytes): <1 titer
Minimum hemagglutinating concentration ([7]; Human B erythrocytes): >333 µg/mL
hemagglutinating activity, titer (1.0 mg/ml) ([7]; Human B erythrocytes): <1 titer
Minimum hemagglutinating concentration ([7]; Human O erythrocytes): >333 µg/mL
hemagglutinating activity, titer (1.0 mg/ml) ([7]; Human O erythrocytes): <1 titer

B1: Aleuria aurantia lectin (protein)
chain: PTEFLYTSKIAAISWAATGGRQQRVYFQDLNGKIREAQRGGDNPWTGGSSQNVIGEAKLFSPLAAVTWKSAQGIQIRVYCVNKDNILSEFVYDGSKWITGQLGSVGVKVGSNSKLAALQWGGSESAPPNIRVYYQKSNGSGSSIHEYVWSGKWTAGASFGSTVPGTGIGATAIGPGRLRIYYQATDNKIREHCWDSNSWYVGGFSASASAGVSIAAISWGSTPNIRVYWQKGREELYEAAYGGSWNTPGQIKDASRPTPSLPDTFIAANSSGNIDISVFFQASGVSLQQWQWISGKGWSIGAVVPTGTPAGW
reaction value (absorbance at 450 nm, blank-subtracted) by ELISA [1]: −0.049
reaction value (absorbance at 450 nm, blank-subtracted) by ELISA [2]: 0.795

B2: Lens culinaris agglutinin (protein)
chain 1: TETTSFSITKFSPDQKNLIFQGDGYTTKGKLTLTKAVKSTVGRALYSTPIHIWDRDTGNVANFVTSFTFVIDAPSSYNVADEFTFFIAPVDTKPQTGGGYLGVFNSKEYDKTSQTVAVEFDTFYNAAWDPSNKERHIGIDVNSIKSVNTKSWNLQNGERANVVIAFNAATNVLTVTLTYP
chain 2: VTSYTLNEVVPLKDVVPEWVRIGFSATTGAEFAAHEVHSWSFHSELGGTSSS
reaction value (absorbance at 450 nm, blank-subtracted) by ELISA [1]: 0.010
reaction value (absorbance at 450 nm, blank-subtracted) by ELISA [2]: 0.455
